Target: MMP-2 (UniProt P08253)
Experiment: cell-based or functional assay

Chain of UniProt P08253 (P08253 110-660 limits assumed): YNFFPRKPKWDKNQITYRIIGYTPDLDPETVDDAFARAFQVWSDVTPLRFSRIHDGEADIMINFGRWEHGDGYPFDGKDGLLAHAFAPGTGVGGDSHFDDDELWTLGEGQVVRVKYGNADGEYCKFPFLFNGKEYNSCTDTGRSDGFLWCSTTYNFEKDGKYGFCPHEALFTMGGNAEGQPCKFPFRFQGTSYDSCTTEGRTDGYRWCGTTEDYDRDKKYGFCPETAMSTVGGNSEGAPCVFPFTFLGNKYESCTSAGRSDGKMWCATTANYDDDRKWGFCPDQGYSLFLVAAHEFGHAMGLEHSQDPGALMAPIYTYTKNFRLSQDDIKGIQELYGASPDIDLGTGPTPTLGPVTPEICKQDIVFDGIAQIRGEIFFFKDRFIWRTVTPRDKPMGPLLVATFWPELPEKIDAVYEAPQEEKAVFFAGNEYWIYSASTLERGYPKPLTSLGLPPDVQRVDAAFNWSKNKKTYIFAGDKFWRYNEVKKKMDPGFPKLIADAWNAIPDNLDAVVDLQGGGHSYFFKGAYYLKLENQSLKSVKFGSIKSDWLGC

inhibition of MMP-2 activity (spectrofluorometric assay, 10 nM MMP-2, 10 µM MCA-Pro-Leu-Gly-Leu-Dap(Dnp)-Ala-Arg-NH2 substrate) at 7.5 µg/ml HSA-TIMP2: 37%
inhibition of MMP-2 activity (spectrofluorometric assay, 10 nM MMP-2, 10 µM MCA-Pro-Leu-Gly-Leu-Dap(Dnp)-Ala-Arg-NH2 substrate) at 15 µg/ml HSA-TIMP2: 55%
Substance: human serum albumin-TIMP2 fusion protein
